Laboratory results: patent US20200155655

Biological target: Vps34 (vacuolar protein sorting 34), endogenous in MEF cell lysate (UniProt Q6PF93)
Sequence (Q6PF93 whole entry): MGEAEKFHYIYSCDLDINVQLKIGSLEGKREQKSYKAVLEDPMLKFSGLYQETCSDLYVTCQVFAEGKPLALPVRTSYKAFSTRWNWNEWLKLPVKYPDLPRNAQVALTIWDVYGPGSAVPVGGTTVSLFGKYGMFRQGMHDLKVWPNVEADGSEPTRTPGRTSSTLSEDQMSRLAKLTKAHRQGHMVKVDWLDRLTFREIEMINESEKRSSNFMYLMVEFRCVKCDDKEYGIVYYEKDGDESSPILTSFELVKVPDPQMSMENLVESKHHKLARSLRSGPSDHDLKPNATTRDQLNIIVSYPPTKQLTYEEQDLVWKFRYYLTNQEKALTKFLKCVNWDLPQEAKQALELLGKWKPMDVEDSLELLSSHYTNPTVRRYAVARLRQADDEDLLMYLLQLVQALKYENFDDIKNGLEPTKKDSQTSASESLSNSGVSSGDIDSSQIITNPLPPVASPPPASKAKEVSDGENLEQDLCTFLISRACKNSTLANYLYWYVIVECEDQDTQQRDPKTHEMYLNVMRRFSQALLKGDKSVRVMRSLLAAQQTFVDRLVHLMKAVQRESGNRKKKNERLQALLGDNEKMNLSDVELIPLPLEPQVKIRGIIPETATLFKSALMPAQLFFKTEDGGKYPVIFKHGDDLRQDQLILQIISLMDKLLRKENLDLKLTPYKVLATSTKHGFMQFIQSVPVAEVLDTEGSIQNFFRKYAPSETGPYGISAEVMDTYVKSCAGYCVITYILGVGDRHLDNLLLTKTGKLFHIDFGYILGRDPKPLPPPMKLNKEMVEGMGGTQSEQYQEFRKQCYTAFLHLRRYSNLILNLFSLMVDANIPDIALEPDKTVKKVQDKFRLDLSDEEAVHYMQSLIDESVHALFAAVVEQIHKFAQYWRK

Chain of purified GST-LRS protein (chain, as listed by the source): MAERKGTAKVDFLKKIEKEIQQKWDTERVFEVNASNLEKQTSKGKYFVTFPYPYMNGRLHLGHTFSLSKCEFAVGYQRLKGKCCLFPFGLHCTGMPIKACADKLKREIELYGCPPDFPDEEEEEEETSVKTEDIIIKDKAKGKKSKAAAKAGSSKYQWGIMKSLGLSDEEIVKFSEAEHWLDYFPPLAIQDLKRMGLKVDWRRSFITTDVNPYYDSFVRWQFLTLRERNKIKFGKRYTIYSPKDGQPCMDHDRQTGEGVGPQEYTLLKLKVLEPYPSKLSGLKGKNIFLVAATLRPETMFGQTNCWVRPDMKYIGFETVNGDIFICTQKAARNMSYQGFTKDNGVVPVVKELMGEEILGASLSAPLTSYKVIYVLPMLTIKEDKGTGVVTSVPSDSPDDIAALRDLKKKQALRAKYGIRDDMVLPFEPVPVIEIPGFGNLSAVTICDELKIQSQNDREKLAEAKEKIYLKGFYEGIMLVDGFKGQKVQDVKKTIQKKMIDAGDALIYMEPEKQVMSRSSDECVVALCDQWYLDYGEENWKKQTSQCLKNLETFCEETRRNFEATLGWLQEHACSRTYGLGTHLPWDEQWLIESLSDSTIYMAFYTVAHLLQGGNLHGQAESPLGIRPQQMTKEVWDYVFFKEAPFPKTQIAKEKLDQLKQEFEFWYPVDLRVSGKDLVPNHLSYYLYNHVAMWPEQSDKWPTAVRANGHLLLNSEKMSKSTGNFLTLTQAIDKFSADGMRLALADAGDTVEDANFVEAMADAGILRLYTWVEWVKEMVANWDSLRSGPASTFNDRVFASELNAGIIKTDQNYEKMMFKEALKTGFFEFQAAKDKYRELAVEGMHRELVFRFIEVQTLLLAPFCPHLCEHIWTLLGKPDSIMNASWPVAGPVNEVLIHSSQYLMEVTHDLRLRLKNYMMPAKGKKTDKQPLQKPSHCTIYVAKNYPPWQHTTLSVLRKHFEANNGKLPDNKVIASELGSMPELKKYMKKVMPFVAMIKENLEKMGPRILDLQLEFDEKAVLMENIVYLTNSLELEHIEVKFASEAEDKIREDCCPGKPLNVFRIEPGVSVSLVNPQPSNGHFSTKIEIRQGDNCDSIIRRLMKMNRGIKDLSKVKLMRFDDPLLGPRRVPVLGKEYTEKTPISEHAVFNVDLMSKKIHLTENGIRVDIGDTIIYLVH
Chain of GST-LRS mutation (F50A/Y52A) (chain, as listed by the source F50A Y52A): as the sequence (chain, as listed by the source) above, with F50A, Y52A counted along it

Row | Substance | activity of Vps34 (in vitro Vps34 lipid kinase assay) | activity of Vps34 (in vitro Vps34 lipid kinase assay), with leucine
1 | GST-LRS mutation (F50A/Y52A) | LRS mutation (F50A/Y52A) did not induce the activation of Vps34, regardless of the presence or absence of leucine stimulation | 
2 | purified GST-LRS protein | the activity of Vps34 was increased by about 3 times compared to the GST control | the activity was further increased by leucine stimulation
